From publication PMC9940316
pKd: −log10 of the molar value. Each block holds one substance with its values, some of them ahead of it.

Key:
[1] = target: rabbit polyclonal anti-BSA antibody (IgG) (rabbit) (UniProt P01870); assay: SPR; pH 7.5
[2] = target: rabbit polyclonal anti-BSA antibody (IgG) (rabbit) (UniProt P01870); assay: SPR; pH 4.0
[3] = target: rabbit polyclonal anti-BSA antibody (IgG) (rabbit) (UniProt P01870); assay: SPR; pH 4.6
[4] = target: human plasma IgG4 (human); assay: SPR; BIAcore 3000; human IgG subclass immobilised on CM5 chip by amine coupling (200-1000 RU); FcγRI mutants as analytes; steady-state fitting
[5] = target: human plasma IgG3 (human); assay: as above
[6] = target: human IgG2 (human); assay: as above
[7] = target: human plasma IgG4 (human); assay: SPR; BIAcore 3000; human IgG subclass immobilised on CM5 chip by amine coupling (200-1000 RU); wild type FcγRI as analyte; kinetic curve fitting
[8] = target: human plasma IgG3 (human); assay: as above
[9] = target: human IgG2 (human); assay: as above
[10] = target: VRC01, human IgG1 isotype anti-gp120 antibody, wildtype (human); assay: BLI; Octet R8; VRC01 or D265R mutant captured on Protein A biosensors (~5 nm); serial dilutions of FcγRI (Zymogenetics); 10mM Hepes pH7.5, 0.15M NaCl; 1:1 binding model
Chain of VRC01, human IgG1 isotype anti-gp120 antibody, wildtype (human) (light, as listed by the source, chain 2 of 2, other chains not shown): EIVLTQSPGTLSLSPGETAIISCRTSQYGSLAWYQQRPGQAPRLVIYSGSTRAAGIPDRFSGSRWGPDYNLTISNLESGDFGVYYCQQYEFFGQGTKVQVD

[11] = target: VRC01 D265R mutant antibody (human); assay: as above
Chain of VRC01 D265R mutant antibody (human) (light, as listed by the source, chain 2 of 2, other chains not shown): as above

Chain of recombinant human FcγRI, wildtype (P12314 21-282): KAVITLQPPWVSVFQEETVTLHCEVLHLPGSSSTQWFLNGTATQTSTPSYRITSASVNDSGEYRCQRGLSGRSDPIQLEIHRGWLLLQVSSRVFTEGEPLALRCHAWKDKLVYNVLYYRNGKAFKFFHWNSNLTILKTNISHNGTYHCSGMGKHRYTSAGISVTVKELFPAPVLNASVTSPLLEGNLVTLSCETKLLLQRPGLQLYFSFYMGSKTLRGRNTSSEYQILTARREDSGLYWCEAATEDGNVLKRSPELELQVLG
Chain of rabbit polyclonal anti-BSA antibody (IgG) (rabbit) (P01870 whole entry, looked up): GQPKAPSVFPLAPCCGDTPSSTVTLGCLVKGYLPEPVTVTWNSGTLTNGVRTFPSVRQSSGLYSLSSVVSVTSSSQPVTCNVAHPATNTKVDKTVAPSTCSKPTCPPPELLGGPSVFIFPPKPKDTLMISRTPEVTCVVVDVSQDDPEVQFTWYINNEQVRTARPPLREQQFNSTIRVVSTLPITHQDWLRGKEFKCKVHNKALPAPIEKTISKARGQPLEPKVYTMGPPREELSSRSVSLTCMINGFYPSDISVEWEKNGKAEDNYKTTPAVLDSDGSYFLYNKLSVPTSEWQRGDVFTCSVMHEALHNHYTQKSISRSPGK

- pKd [1]: 8.11
- pKd [2]: 8.74
- pKd [3]: 8.00
Substance: BSA

- pKd [4]: 6.96
- pKd [5]: 7.62
- pKd [6]: 7.48
Substance: FcγRI H174R variant (bovine FG-loop variant of human FcγRI) (from UniProt P12314 21-282) (receptor)

- pKd [7]: 7.18
- pKd [8]: 7.54
- pKd [9]: 7.39
- pKd [10]: 7.92
- pKd [11]: 5.94
Substance: recombinant human FcγRI, wildtype (from UniProt P12314 21-282) (receptor)
